Source: patent publication US8647868B2, “Compositions and methods for increasing production of recombinant gamma-carboxylated proteins” (Wake Forest University Health Sciences, priority 2005, dated 2014)

B1: reduced RNAse: bovine ribonuclease B reduced with DTT; used to trigger VKOR activity (protein, UniProt P61823 27-150, looked up)
Ribonuclease pancreatic: KETAAAKFERQHMDSSTSAASSSNYCNQMMKSRNLTKDRCKPVNTFVHESLADVQAVCSQKNVACKNGQTNCYQSYSTMSITDCRETGSSKYPNCAYKTTQANKHIIVACEGNPYVPVHFDASV
modifications: reduced with DTT

Assays:
blood clotting activity = assay: Blood clotting activity (APTT) of purified r-hFIX; assay type: biochemical, human; conditions: purified from medium of 200 nM siRNA SMART pool treated (r-hFIX+VKORC1) BHK cells
Experimental: Warfarin sensitive VKOR activity was measured as described (19) by estimating the percent conversion of vitamin K1 2,3-epoxide (Vit.K>O) to vitamin K1. The vitamin and the epoxide were separated on a reversed phase C18 column in 100% methanol and quantified against external standards. VKOR activity was either triggered with 5 mM DTT or 0.32 mM reduced RNAse. Reduced bovine RNAse was prepared according to a modified method originally described by Rupp et al. (20). One hundred mg RNAse was dissolved in 500 μl of 0.2 M Tris-Acetate, 6 M guanidinium hydrochloride, pH 8.0. Seventy-two mg DTT was added and the solution was left at 37° C. for one hour. Then the pH was adjusted to 4.0 with acetic acid and DTT, Tris and guanidinium hydrochloride removed by gel filtration on a column of Sephadex G-25 equilibrated in 0.1 M acetic acid. Prior to chromatography, the column resin and the 0.1 M acetic acid were saturated with N2. The void volume fraction containing reduced RNAse was distributed into sealed 0.75 ml serum flasks filled with N2 which were stored at 4° C. until use. […] Blood clotting activities of purified r-hFIX and plasma hFIX were determined with the Activated Partial Thromboplastin Time (APPT) kit APTT-SP (liquid)-0020006300 from Instrumentation Laboratory, Lexington, Mass. […]

γ-carboxylase = assay: FLEEL γ-carboxylation in extracted rat liver microsomes triggered by reduced RNAse; assay type: biochemical; conditions: 40 μM vitamin K1 2,3-epoxide, no DTT
Experimental: Rat liver microsomes extracted of luminal and peripherally bound membrane proteins (see Experimental Procedures) were tested for FLEEL γ-carboxylation when the reaction was triggered by reduced RNAse (black bar) and reduced vitamin K1H2 (shaded bar). When reduced RNAse was used, the test system contained 40 μM vitamin K1 2,3-epoxide as the source of the γ-carboxylase cofactor. No DTT was present in the assays. Each bar represents the average activity of three parallel incubations. Standard deviation is shown on each bar.
For removal of microsomal luminal and peripherally bound membrane proteins, microsomes obtained from 4 g of rat liver were suspended in 8 ml of 100 mM Na2CO3, 1.2 M KCl, 0.025% deoxycholate, pH 11.5 with a Potter Elvehjelm glass homogenizer and centrifuged at 100,000×g for 45 min (14). […]
Warfarin sensitive VKOR activity was measured as described (19) by estimating the percent conversion of vitamin K1 2,3-epoxide (Vit.K>O) to vitamin K1. The vitamin and the epoxide were separated on a reversed phase C18 column in 100% methanol and quantified against external standards. […] Blood clotting activities of purified r-hFIX and plasma hFIX were determined with the Activated Partial Thromboplastin Time (APPT) kit APTT-SP (liquid)-0020006300 from Instrumentation Laboratory, Lexington, Mass. […]

Molecule | specific activity of functional r-hFIX (blood clotting activity) [units/mg] | FLEEL γ-carboxylation triggered by reduced RNAse (γ-carboxylase)
r-hFIX: functional recombinant human factor IX purified from medium of engineered BHK cells | 147 | –
B1 | – | to the same extent as chemically reduced vitamin K1H2
